{"source": "patent US20050043221A1", "about": "(BROWN UNIVERSITY, published 2005)", "binders": {"B1": {"name": "γ-sarcoglycan, 35S-methionine-labelled, in vitro translated (other, human, UniProt Q13326 1-291, looked up)", "chain": "MVREQYTTATEGICIERPENQYVYKIGIYGWRKRCLYLFVLLLLIILVVNLALTIWILKVMWFSPAGMGHLCVTKDGLRLEGESEFLFPLYAKEIHSRVDSSLLLQSTQNVTVNARNSEGEVTGRLKVGPKMVEVQNQQFQINSNDGKPLFTVDEKEVVVGTDKLRVTGPEGALFEHSVETPLVRADPFQDLRLESPTRSLSMDAPRGVHIQAHAGKIEALSQMDILFHSSDGMLVLDAETVCLPKLVQGTWGPSGSSQSLYEICVCPDGKLYLSVAGVSTTCQEHNHICL", "notes": "also called gamma sarcoglycan"}, "B2": {"name": "recombinant decorin core polypeptide (no side chains), vaccinia system (other, UniProt P07585 31-359, looked up, not shown: small tags and cut ends)", "chain": "DEASGIGPEVPDDRDFEPSLGPVCPFRCQCHLRVVQCSDLGLDKVPKDLPPDTTLLDLQNNKITEIKDGDFKNLKNLHALILVNNKISKVSPGAFTPLVKLERLYLSKNQLKELPEKMPKTLQELRAHENEITKVRKVTFNGLNQMIVIELGTNPLKSSGIENGAFQGMKKLSYIRIADTNITSIPQGLPPSLTELHLDGNKISRVDAASLKGLNNLAKLGLSFNSISAVDNGSLANTPHLRELHLDNNKLTRVPGGLAEHKYIQVVYLHNNNISVVGSSDFCPPGHNTKKASYSGVSLFSNPVQYWEIQPSTFRCVYVRSAIQLGNYK"}, "B3": {"name": "β-sarcoglycan, 35S-methionine-labelled, in vitro translated (other, human, UniProt Q16585 1-318, looked up)", "chain": "MAAAAAAAAEQQSSNGPVKKSMREKAVERRSVNKEHNSNFKAGYIPIDEDRLHKTGLRGRKGNLAICVIILLFILAVINLIITLVIWAVIRIGPNGCDSMEFHESGLLRFKQVSDMGVIHPLYKSTVGGRRNENLVITGNNQPIVFQQGTTKLSVENNKTSITSDIGMQFFDPRTQNILFSTDYETHEFHLPSGVKSLNVQKASTERITSNATSDLNIKVDGRAIVRGNEGVFIMGKTIEFHMGGNMELKAENSIILNGSVMVSTTRLPSSSSGDQLGSGDWVRYKLCMCADGTLFKVQVTSQNMGCQISDNPCGNTH", "notes": "also called beta-sarcoglycan"}, "B4": {"name": "recombinant decorin proteoglycan (core and side chains), vaccinia system (other, UniProt P07585 31-359, looked up, not shown: small tags and cut ends)", "chain": "B2 chain", "modifications": "glycosaminoglycan side chain", "notes": "also called DEC-PG; DECPG"}}, "key": {"[1]": {"target": "B4", "experiment": "blot overlay with 35S in vitro translated sarcoglycan"}, "[2]": {"target": "T1, recombinant human biglycan core polypeptide (no side chains), His-tagged, vaccinia system (human, UniProt P21810 38-368)", "T1 construct": "GAG attachment sites present but not substituted; also called BGN; core biglycan; not shown: N-terminal cassette His6-[Glu-Ser]-factor Xa site-[Leu-Glu]", "T1 sequence": "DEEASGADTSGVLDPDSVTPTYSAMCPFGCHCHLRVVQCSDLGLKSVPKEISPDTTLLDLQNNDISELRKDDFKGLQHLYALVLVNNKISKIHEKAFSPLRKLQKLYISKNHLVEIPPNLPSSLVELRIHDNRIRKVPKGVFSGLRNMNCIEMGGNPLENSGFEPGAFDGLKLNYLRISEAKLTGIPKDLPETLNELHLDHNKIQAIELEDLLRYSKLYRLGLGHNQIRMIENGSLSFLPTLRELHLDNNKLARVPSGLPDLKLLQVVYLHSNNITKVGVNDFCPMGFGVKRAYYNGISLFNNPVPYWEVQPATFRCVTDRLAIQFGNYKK", "experiment": "blot overlay with 35S in vitro translated sarcoglycan"}, "[3]": {"target": "B2", "experiment": "blot overlay with 35S in vitro translated sarcoglycan"}, "[4]": {"target": "T2, α-sarcoglycan, 35S-methionine-labelled, in vitro translated (human, UniProt Q16586 1-387, limits assumed)", "T2 construct": "also called alpha-sarcoglycan", "T2 sequence (looked up)": "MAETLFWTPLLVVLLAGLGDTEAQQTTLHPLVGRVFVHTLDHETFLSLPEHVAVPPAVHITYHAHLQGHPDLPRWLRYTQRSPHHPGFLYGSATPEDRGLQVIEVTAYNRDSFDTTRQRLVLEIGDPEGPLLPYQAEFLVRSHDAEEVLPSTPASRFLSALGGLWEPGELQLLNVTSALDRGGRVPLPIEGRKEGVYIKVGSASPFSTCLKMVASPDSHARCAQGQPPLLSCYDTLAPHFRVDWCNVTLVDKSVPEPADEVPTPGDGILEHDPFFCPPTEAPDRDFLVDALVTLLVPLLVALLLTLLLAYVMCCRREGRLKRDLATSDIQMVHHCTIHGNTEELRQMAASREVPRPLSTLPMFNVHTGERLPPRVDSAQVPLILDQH", "experiment": "blot overlay with 35S in vitro translated sarcoglycan"}, "[5]": {"target": "T1, recombinant human biglycan core …", "experiment": "co-immunoprecipitation in solution with anti-biglycan or anti-poly-His, protein G beads"}, "[6]": {"target": "B2", "experiment": "blot overlay"}}}
{"binder": "B1", "values": [{"measurement": "binding result", "setting": "[1]", "result": "no binding"}, {"measurement": "binding result", "setting": "[2]", "result": "binds"}, {"measurement": "binding result", "setting": "[3]", "result": "no binding"}]}
{"binder": "B2", "values": [{"measurement": "binding result", "setting": "[4]", "result": "no binding"}]}
{"binder": "B3", "values": [{"measurement": "binding result", "setting": "[5]", "result": "no binding"}, {"measurement": "binding result", "setting": "[6]", "result": "no binding"}]}
{"binder": "B4", "values": [{"measurement": "binding result", "setting": "[4]", "result": "no binding"}]}
